Measurements published in a protein production outcome set (Wang et al. 2014).

Experiment: label from the status in PepcDB records

Sequence	protein production
VPKLVDHDERRRSITAAAWRLIAARGIEAANMRDIATEAGYTNGALSHYFAGKDEILRTSYEHISEATDRRIAEALGDATGLDALRILCREVMPINEEQLLEARIAASLWPRAMYDEQMAATNRRTMDNWREQMAIFLEQAREEGSVGDIDVTIVVEQLLNMMMGMQILGVLTPGETSSERQLEMLEQFVAAL	not failed
MSNIITYLKNNSNLTFDELALNDVDILCLNEFGYISFEKLINTTEMKSVLVCELYHEYLQTMAKSYSFMFTSQRHDLCQLMMTSKRFKNLTLSYYRAEISLEFEKQFAAMVFTIPNINYHQVVFRGTDANLIGWKEDFKLTYMREISAHRSAIKYLNTILPYFDKVVLSGHSKGGNLALYAAMFTKPDLKAKIDLIWLIDSPGLQKTLLPTTEYKTTKQKCIRLLPEESIVGMMLYSDIEPLIISSNARGILQHDVTTWEIQEPAILKTGTGLSLKSICFEKTFQQWMAELKSQERKLFFDLLFDSFLSSGVSSLDDFNLASRAKMMKAFHSFRELDDDKKRLFNKSLKLLVTIFWGAYHDNSRETK	failed
MKKKIIIAIVASAITMTHFVGNTYADSKTEVSVTAPYNTNQIAKWLEAHAKPLKTTNPTASLNDLKPLKNMVGSASIVGLGEATHGAHEVFTMKHRIVKYLVSEKGFTNLVLEEGWDRALELDRYVLTGKGNPSQHLTPVFKTKEMLDLLDWIRQYNANPKHKSKVRVIGMDIQSVNENVYNNIIEYIKANNSKLLPRVEEKIKGLIPVTKDMNTFESLTKEEKEKYVLDAKQISALLEENKSYLNGKSKEFAWIKQNARIIEQFTTMLATPPDKPADFYLKHDIAMYENAKWTEEHLGKTIVWGHNGHVSKTNMLSFIYPKVAGQHLAEYYGKRYVSIGTSVYEGQYNVKNSDGEFGPYGTLKSDDPNSYNYIFGQVKKDQFFIDLRKANGVTKTWLNEQHPIFAGITTEGPDIPKTVDISLGKAFDILVQIQKVSPSQVHQLEHHHHHH	not failed
MITSLPDNYSPQRQIPIKPDITFVHVRLAHFIAMGAGIGLIRYMPGTAGTIAAFPFYRFLDSIIEPVSLLLIIDVFFIMGIWACAVTGRALNSPDHSGMVWDEIVAFMLVLFFTPDHWTWQLAAFFLFRFFDIVKPAPIGYLDARLKGGLGVMLDDLLAAFYTLLCLAGWKSMVLFESYF	failed
NGGIPHDNLVLIRMKPDENGRFGFNVKGGYDQKMPVIVSRVAPGTPADLCVPRLNEGDQVVLINGRDIAEHTHDQVVLFIKASCERHSGELMLLVRPNAVYDVVEE	not failed
NDAIPTIFIHGYRGTDRSLHGMIRRFDQKYNWGTESLTVNVSPDGSISTTGTYSKNEKNPLINIVFEDNRATLPQQSMWTKKIMSYLQKNYDIKKFNAIGHSMGGGAWVSYLASYEKNKSYPQVNKIVFLAVPFYPEEYVNGDQQVDIKNANNVHAKFAQKMAKVLPDNTEIMIIGGDLEDGSNSDGEVKLNSVLYGQKLFAHQKVITHVIKGPKATHSSMHESTVVDKYVGQFLWGQK	failed
SSETPAQCSIKQERISYTPPESPVPSYASSTPLHVPVPRALRMEEDSIRLPAHLRLQPIYWSRDDVAQWLKWAENEFSLRPIDSNTFEMNGKALLLLTKEDFRYRSPHSGDVLYELLQHILKQRKPRILFSPFFHPGNSIHTQPEVILHQNHEEDNCVQRTPRPSVDNVHHNPPTIELLHRSRSPITTNHRPSPDPEQRPLRSPLDNMIRRLSPAERAQGPRPHQENNHQESYPLSVSPMENNHCPASSESHPKPSSPRQESTRVIQLMPSPIMHPLILNPRHSVDFKQSRLSEDGLHREGKPINLSHREDLAYMNHIMVSVSPPEEHAMPIGRIADCRLLWDYVYQLLSDSRYENFIRWEDKESKIFRIVDPNGLARLWGNHKNRTNMTYEKMSRALRHYYKLNIIRKEPGQRLLFRFMKTPDEIMSGRTDRLEHLESQELDEQIYQEDEC	not failed
MRASQSAIFRRIDPFAILSFTIPLAVYLLTLAPSVTFFDSGEFITAIHSLGTAHSPGYPLFVNYGKPFTWLPFGNIAFRVNIATAVSASAACFAVYFLTHYLLKREELVPDLRFSDTFARLCGLAAALAFAFSARLWLQSNHDKPYPLVAFMTAMVFYLLVTWRERYDEGEMRPSHIYLGAFICGLATGAHQTIVLMLPAYAWLILSKNWRLAARVKELALTVAFGLMGFAIQLHMPIRAMRNPLLNWGDPRTLDLFLWNFLRKGYPVEPPDRNLALAWQQLSAFNLPREFTWVGLVLLLVGIGAFFTRRRDEIIAYLLAIVCSLLVIVGYFNTPGDLIFLTEEFFTPIYLLSAVFIGLGLFTLLRLALRNNPVEKLRTVPIKLMAGLLLLVLPSAICAMNYYENDQHENYVAFDYATNTLRSLSPGAVLFTWGDSGAFPLWYLQGVERMREDLDLLHTPHLVFDWYLDAFPHLFGRSVLRTMPERRQSSEVALKLAVAEQIVSRPVFIDFSTRYSLPFAEYGLKQRGICYQLINDGGSVLRPPDLAVWRLYASRGYTSQMGFRDLDTGKAILIYASCRMEAGEILLRMGYRQQGAEELSAAAAIAPELRAQVEQVLAAYGAR	failed
MKIIVVGCGKIGYTIAKVLSEKKDIDVTVVDNNPNIFDKMVEPIDVIFISGNGANEKTLIEAGAKDADLIVSTTNADELNVLCCIMAERLGTKHSIARVRNPEYMLEFNKLWKDLGIDMVINPERQTAREISRILRYHAADDIVTFIGDRVELVSFKVSETPEYFVGKSVSQIFDNNMGILLAIVERENQALIPNGDLIFKESDIIWIMGRPSQIMKFFTLIKKGPKKGQEIMVIGGGKITHYLVELLNRHTTKANIKIIKKDRSKCESLYEALSSASLERRCLFIHGDGTNEELLIDEGIDTMDACVCLTDRDEENVFISLYAMRRGVKKVITKINYIHQNMAKSLGLWLGNIITPQYITAKTVIRYVDGLSGAVGRNIMTIHQIYSGDDGNVDAIEFQVNKKAKCIDTPIKKLKLKKGILIGCISRDFDIIIPSGETEIHIGDRVIIFSKNNDIRDLDDILEN	failed
MFSFLEKNPFFFTLAFIFVFAIAGLVEILPNFFKSARPIEGLRPYTVLETAGRQIYIQEGCYHCHSQLIRPFQAEVDRYGAYSLSGEYAYDRPFLWGSKRIGPDLHRVGDYRTTDWHEKHMFDPKSVVPHSIMPAYKHLFTKKSDFDTAYAEALTQKKVFGVPYDTENGVKLGSVEEAKKAYLEEAKKITADMKDKRVLEAIERGEVLEIVALIAYLNSLGNSRINANQNAK	failed
MAMLQTNLGFITSPTFLCPKLKVKLNSYLWFSYRSQGNFSYSLYTFKPMNLWFVQKLDFSKRVNRSYKRDALLLSIKCSSSTGFDNSNAVNSNVVVKEKSVSVILLAGGQGKRMKLCFWLRDVPKISLSLFLFCGVLEYEESIDVDLRFAIPGKERQDSVYSGLQEIDVNSELVCIHDSARPLVNTEDVEKVLKDGSAVGAAVLGVPAKATIKEVIKPELLKKGFELVKSEGLEVTDDVSIVEYLKHPVYVSQGSYTNIKVTTPDDLLLAERILSEDS	failed
MAYDSRLPEQRDPATDPSANYDYQGDSVNRPDLVSALEQRVDGDVRFDTYTRELFATDASAYEQLPIGVVSPVSTEDVVAVMEYCAAEDIPVLPRGGGTSLAGQAVNEAVVLDFKRYMDE	not failed
METKILSNATHKCVLVIDNAQPTGIVANIASVLSMTLGCRVSNIVSHDVYDKQGERHLGITQLPIPILGASQEKIKELRNYFHSLEIEDLVLVDFSTIAQQSRTYDEYEREMYSANEDDLHYVGIGICAEKKAINKATGSLSLIRLEHHHHHH	failed
MASEWNVAAERHSALHYLYRLGDAVLIAVCGIAMGALYFHDGIRSAAPVNGFLTMLCALGALLIFPAFGIYESWRGRSRAVLGLRIAAAWTLVFISGLLGAFLIHQIGAVSRVWSMGWFIGTGVMLALSRVVMFRMLANVRQQGINAKRVLIFGYGPLGREMYDRVQHFRDAGYRVVGVYDEESDAIPYDVTPLRQIEEVSGFVRDHGVREIWLTLPMAACRDLSGVVRQFRNEMIDIRWVPDVSSVELLGHRFSEFMGLPVIDLNSPPVSGITGVVKASFDRVFSLGVLVCLSPLLLLIAAMVKLSSPGPVLFRQQRLGIDGQPFNVYKFRTMRQHQDGGGVTQAVRGDPRVTRVGAFLRRTSLDELPQFINVLRGEMSVVGPRPHAMEHNELYKELIDRYMLRHRVKPGITGWAQINGLRGQTDTVEKMRKRIEFDIYYIQHWSFQLDLRIILRTALHGWTGTTAY	failed
MIDLDPRLAADTHPVTQWPLSQVRLMDDVRFPWLVLIPDRPGLVEIFDLPAEDQDKMWREVAHAAATLKTLSGAHKINIGALGNQVSQLHIHIIARRPDDGAWPGPVWGVGERQRYDQAELAEFLSGLRAQLIAPGQGIVEEGQTR	failed
MPQKTKDTPMMRQYFAVKNQYPDAFLFYRLGDFYEMFFDDAIKGAQLLELTLTTRNHSAENPIPMCGVPHRAVQNYIDILVDKGYKVAICEQMEDPKLAKGMVKREVIQLVTPGTTLERGAEQAKTNNYLTALIQRDQQYGFAYADLSTGELKTSVLTTNDTLINELTSLQTKEIVVDDSVASDLRDQIKTLGILISEQNNVTPQAQLSYLTQDLTVDLEQQVVERLLMYITVTQKRSLAHLQKAIAYEPSYFLKLDHNSKYNLELMKSIRTGKKQGTLLWLLDETKTAMGGRLLKQWIDRPLIVKADIETRQNKVATLLDHYFERSNLQEELTKVYDLERLAGRVAFGSVNGRDLVQLKTSLRQIPKIRYILSELDTQVFNDEVNQLDPVEDVADLIDAAIVEDAPLSVTDGGVIKDGYNEQLDQYRDAMNNGKKWIAELEAQERATTGIKNLKIGFNRVFGYYIEVTKANLAQLPKDRYERKQTLTNAERFSTPELKSHESLILEAESHSTDLEYQLFTKVRETVKKAIQRLQTLAKAVAAIDVLQSFAVVSEDYHFVRPKLTKSHDLKIVDGRHPVVEKVMGNQSYVPNNVTMSPDETVLLITGPNMSGKSTYMRQLALTVIMAQIGCFVPAKSAQLPIFDQIFTRIGATDDLISGQSTFMVEMQEANNALQHATANSLVLFDEIGRGTATYDGMALAQAIIEFVHNHIHAKTLFSTHYHELTALDQELSGLRNVHVGATEQDGELVFLHKVEPGAADKSYGVHVAKLAGMPTSLLERANKILTSLENQTSTVSTTAASIAASDAANSVAPNTAASMPVEAADESQPVESETPVAEAPVAEAGDEQLSLFAEPAVTDAKGEKVLQQLKTLNLMAMTPMDVMNQLYKWQQKLGK	failed
MLRLSAPGQLDDDLCLLGDVQVPVFLLRLGEASWALVEGGISRDAELVWADLCRWVADPSQVHYWLITHKHYDHCGLLPYLCPRLPNVQVLASERTCQAWKSESAVRVVERLNRQLLRAEQRLPEACAWDALPVRAVADGEWLELGPRHRLQVIEAHGHSDDHVVFYDVRRRRLFCGDALGEFDEAEGVWRPLVFDDMEAYLESLERLQRLPTLLQLIPGHGGLLRGRLAADGAESAYTECLRLCRRLLWRQSMGESLDELSEELHRAWGGQSVDFLPGELHLGSMRRMLEILSRQALPLD	failed
SDPLYVPDPDPTKFPVNRNLTRKAGYLNARNKTGLVSSTWDRQFYFTQGGNLMSQARGDVAGGLAMDIDNCSVMAVDCEDRRYCFQITSFDGKKSSILQAESKKDHEEWICTINNISKQIYLSENPEETAARVNQSALEAVTPSPSFQQRHESLRPAAGQSRPPTART	failed
MKLERQKLLAKVAYLYYMEGKSQSEIANELGIYRTTISRMLAKAREEGLVRIEISDFNPEIFQLESYFKSKYHLKDIEIVSSRKDSDTSEIEKDLAHVAAAMIRKKIKENDKVGIAWGRTLSKVVEAMRPHPVSQVSFVPLAGGPSHINARYHVNTLVYEMSRRFQGSCTFINATLVQENANLAKGILTSKYFEGLMDNWEKLDVAIVGVGGKPKSNEQQWLDLLNQDDFQCLDEEAAVGEITCRFFNHSGDPVNQHLAKRTIGITLEQLQKVPNRIAVAHGNYKAAALLAVLKKGYINHLVTDFSTALNILRLDKDTFVDTIYQKS	not failed
